Where a chain is given by its changes, count along the chain named. In names and notes the source's numbering stands.
T1: factor XIIIa (human, UniProt P00488 39-732)
T1 sequence (looked up): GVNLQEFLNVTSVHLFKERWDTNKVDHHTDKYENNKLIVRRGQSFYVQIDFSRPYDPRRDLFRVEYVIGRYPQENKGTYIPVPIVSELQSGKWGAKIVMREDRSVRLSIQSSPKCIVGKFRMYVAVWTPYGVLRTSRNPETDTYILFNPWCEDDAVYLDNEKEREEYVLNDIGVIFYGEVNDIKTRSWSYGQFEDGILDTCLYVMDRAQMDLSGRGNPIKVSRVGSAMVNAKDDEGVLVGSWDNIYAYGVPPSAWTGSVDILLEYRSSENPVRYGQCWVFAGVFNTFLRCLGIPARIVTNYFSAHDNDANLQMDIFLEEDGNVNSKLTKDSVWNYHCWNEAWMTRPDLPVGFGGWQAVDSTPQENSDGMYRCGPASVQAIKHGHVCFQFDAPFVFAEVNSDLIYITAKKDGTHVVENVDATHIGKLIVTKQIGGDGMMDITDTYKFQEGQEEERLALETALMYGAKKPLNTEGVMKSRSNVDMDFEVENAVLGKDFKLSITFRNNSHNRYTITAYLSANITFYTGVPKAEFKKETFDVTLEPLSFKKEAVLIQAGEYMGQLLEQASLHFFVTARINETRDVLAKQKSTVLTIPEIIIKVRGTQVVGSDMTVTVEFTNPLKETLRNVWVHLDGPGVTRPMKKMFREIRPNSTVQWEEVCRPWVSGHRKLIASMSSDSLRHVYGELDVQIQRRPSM

B1: recombinant wild-type tridegin polypeptide (SEQ ID No. 1) from Escherichia coli (protein, not shown: small tags and cut ends)
chain: MKLLPCKEWHQGIPNPRCWCGADLECAQDQYCAFIPQCRPRSELIKPMDDIYQRPVEFPNLPLKPREE
B2: modified tridegin F34A (protein, not shown: small tags and cut ends)
chain: B1 chain with F34A
B3: modified tridegin R39A (protein, not shown: small tags and cut ends)
chain: B1 chain with R39A
B4: modified tridegin I45A (protein, not shown: small tags and cut ends)
chain: B1 chain with I45A
B5: modified tridegin M48A (protein, not shown: small tags and cut ends)
chain: B1 chain with M48A
B6: modified tridegin D50A (protein, not shown: small tags and cut ends)
chain: B1 chain with D50A
B7: modified tridegin D50A, P55L (protein, not shown: small tags and cut ends)
chain: B1 chain with D50A, P55L
B8: modified tridegin F58A (protein, not shown: small tags and cut ends)
chain: B1 chain with F58A
B9: modified tridegin N60A (protein, not shown: small tags and cut ends)
chain: B1 chain with N60A
B10: modified tridegin P65A (protein, not shown: small tags and cut ends)
chain: B1 chain with P65A
B11: modified tridegin K02A (protein, not shown: small tags and cut ends)
chain: B1 chain with K2A
B12: modified tridegin K07A (protein, not shown: small tags and cut ends)
chain: B1 chain with K7A
B13: modified tridegin H10A (protein, not shown: small tags and cut ends)
chain: B1 chain with H10A

Key:
[1] = biological target: T1, factor XIIIa; assay: cell-based or functional assay
[2] = biological target: T1, factor XIIIa; assay: cell-based or functional assay; remark: listed apart in the source

Binder	Relative inhibitory effect (%) at 5.45 µM, wild type = 100% [1]	Relative inhibitory effect (%) at 7.27 µM, recombinant tridegin = 100% [2]	also measured
B1	100%		IC50, Berichrom assay (factor XIIIa activity) [1]: 2000 to 4000 nM; Relative inhibitory effect (%) at 7.27 µM (reference) [1]: 100%
B2	96%		
B3	49%		
B4	115%		
B5	91%		
B6	53%		
B7	84%		
B8	60%		
B9	68%		
B10	51%		
B11	113%		
B12	90%		
B13	87%		
Ac-MKLLPCKEWHQGIPNPRCWC-NH2 (cysteine pairing not given here) [20 amino acid-long tridegin peptide SEQ ID NO.2]		0%	
Ac-LLPCKEWHQGIPNPRCWCGA-NH2 (cysteine pairing not given here) [20 amino acid-long tridegin peptide SEQ ID NO.3]		5.88%	
Ac-PCKEWHQGIPNPRCWCGADL-NH2 (cysteine pairing not given here) [20 amino acid-long tridegin peptide SEQ ID NO.4]		9.8%	
Ac-KEWHQGIPNPRCWCGADLEC-NH2 (cysteine pairing not given here) [20 amino acid-long tridegin peptide SEQ ID NO.5]		1.96%	
Ac-WHQGIPNPRCWCGADLECAQ-NH2 (cysteine pairing not given here) [20 amino acid-long tridegin peptide SEQ ID NO.6]		9.8%	

Binder	Relative inhibitory effect (%) at 5.45 µM, wild type = 100% [1]	Relative inhibitory effect (%) at 7.27 µM, recombinant tridegin = 100% [2]	also measured
Ac-QGIPNPRCWCGADLECAQDQ-NH2 (cysteine pairing not given here) [20 amino acid-long tridegin peptide SEQ ID NO.7]		13.7%	
Ac-IPNPRCWCGADLECAQDQYC-NH2 (cysteine pairing not given here) [20 amino acid-long tridegin peptide SEQ ID NO.8]		13.7%	
Ac-NPRCWCGADLECAQDQYCAF-NH2 (cysteine pairing not given here) [20 amino acid-long tridegin peptide SEQ ID NO.9]		0%	
Ac-RCWCGADLECAQDQYCAFIP-NH2 (cysteine pairing not given here) [20 amino acid-long tridegin peptide SEQ ID NO.10]		5.88%	
Ac-WCGADLECAQDQYCAFEPQC-NH2 (cysteine pairing not given here) [20 amino acid-long tridegin peptide SEQ ID NO.11]		0.36%	
Ac-GADLECAQDQYCAFIPQCRP-NH2 (cysteine pairing not given here) [20 amino acid-long tridegin peptide SEQ ID NO.12]		2.49%	
Ac-DLECAQDQYCAFIPQCRPRS-NH2 (cysteine pairing not given here) [20 amino acid-long tridegin peptide SEQ ID NO.13]		7.96%	
Ac-ECAQDQYCAFIPQCRPRSEL-NH2 (cysteine pairing not given here) [20 amino acid-long tridegin peptide SEQ ID NO.14]		6.3%	
Ac-AQDQYCAFIPQCRPRSELIK-NH2 (cysteine pairing not given here) [20 amino acid-long tridegin peptide SEQ ID NO.15]		3.32%	
Ac-DQYCAFIPQCRPRSELIKPM-NH2 (cysteine pairing not given here) [20 amino acid-long tridegin peptide SEQ ID NO.16]		14.8%	
Ac-YCAFEPQCRPRSELIKPMDD-NH2 (cysteine pairing not given here) [20 amino acid-long tridegin peptide SEQ ID NO.17]		12.3%	
Ac-AFIPQCRPRSELIKPMDDIY-NH2 [20 amino acid-long tridegin peptide SEQ ID NO.18]		13.3%	
Ac-IPQCRPRSELIKPMDDIYQR-NH2 [20 amino acid-long tridegin peptide SEQ ID NO.19]		0%	
Ac-QCRPRSELIKPMDDIYQRPV-NH2 [20 amino acid-long tridegin peptide SEQ ID NO.20]		11.1%	
Ac-RPRSELIKPMDDIYQRPVEF-NH2 [20 amino acid-long tridegin peptide SEQ ID NO.21]		19.4%	
Ac-RSELIKPMDDIYQRPVEFPN-NH2 [20 amino acid-long tridegin peptide SEQ ID NO.22]		8.64%	
Ac-ELIKPMDDIYQRPVEFPNLP-NH2 [20 amino acid-long tridegin peptide SEQ ID NO.23]		24%	
